Measurements from the supplement of paper PMC10567573.

B1: SMTNL2 (parent)
chain: ETAAGKGKGEARARLKRSQSFGVA

Variants of: B1
Experiment: protein stability index of a GFP-peptide fusion (GPS, HEK-293T) (PSI 1-6); higher = more stable
Conditions: c terminus: a fixed tail appended
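Note: lentivirally expressed fusions sorted by FACS into six bins by GFP to DsRed ratio, PSI derived from sequencing read proportions per bin multiplied by bin number.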

Row | Variant | protein stability index
1 | V23N | 4.68
2 | V23W | 3.96
3 | V23G | 5.23
4 | V23T | 4.75
5 | V23F | 3.98
6 | V23K | 4.95
7 | V23P | 4.62
8 | V23S | 5.17
9 | V23I | 4.39
10 | V23R | 4.89
11 | V23D | 4.84
12 | V23Y | 4.11
13 | V23M | 4.84
14 | V23L | 3.68
15 | V23C | 4.83
16 | V23Q | 4.94
17 | V23E | 5.35
18 | V23H | 5.02
19 | A24M | 4.29

Row | Variant | protein stability index
20 | A24Q | 4.51
21 | A24C | 4.28
22 | A24W | 3.57
23 | A24R | 4.52
24 | A24D | 4.9
25 | A24Y | 3.72
26 | A24S | 4.65
27 | A24I | 3.75
28 | A24L | 4.49
29 | A24V | 4.01
30 | A24K | 4.41
31 | A24F | 3.97
32 | A24P | 4.88
33 | A24T | 4.23
34 | A24H | 4.27
35 | A24E | 4.71
36 | A24G | 4.6
37 | A24N | 5.09
